Test results published in PMC7956749, “Establishment of Novel Protein Interaction Assays between Sin3 and REST Using Surface Plasmon Resonance and Time-Resolved Fluorescence Energy Transfer” (International Journal of Molecular Sciences, 2021).
“Also recorded” adds a separate entry of the source. Where no end group is shown, it is not given here.

Legend:
[1] = target: T1, PAH1-FLAG (paired amphipathic helix 1 domain of Sin3B with a FLAG tag) (UniProt Q62141 31-107); assay: SPR; well-used sensor chip (about 100 regenerations)
T1 chain: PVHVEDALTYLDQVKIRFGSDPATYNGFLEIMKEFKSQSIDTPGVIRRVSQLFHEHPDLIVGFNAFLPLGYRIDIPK

[2] = target: T2, GST-tagged PAH1 (paired amphipathic helix 1 domain of Sin3B) (UniProt Q62141 31-107); assay: SPR
T2 chain: T1 chain

[3] = target: T1, PAH1-FLAG (paired amphipathic helix 1 …); assay: SPR; brand-new sensor chip
[4] = test system: biotinylated REST; assay: TR-FRET PAH1-REST interaction (anti-GST/anti-FLAG-Eu3+ cryptate donor, SA-XL665 acceptor); format: binding; details: for TR-FRET signal: 665 nm normalized to 620 nm, PAH1 peptide and biotinylated REST 1 to 10,000 nM, n = 4; for dynamic range: TR-FRET 665/620 nm, 384-well, 20 µL, 50 mM Tris-HCl pH 7.6, with biotinylated REST; for S/B / S/N: n=4
Source text: Finally, in order to establish a high-throughput and high-dynamic-range assay mimicking the binding surface between PAH1 and REST, we tried to apply the TR-FRET method for monitoring the interaction as shown in Figure 3a. We chose Europium cryptate (Eu^3+)-conjugated antibodies against GST or FLAG as a donor and SA-conjugated XL665 (a phycobiliprotein pigment derived from red algae) as an acceptor, for TR-FRET. If GST-PAH1 or PAH1-FLAG binds biotinylated REST and then transfers Eu^3+’s energy to XL665, it results in a change of the wavelength from 620 nm (a […] fluorescence derived from Eu^3+ alone) to 665 nm (a long-lived fluorescence converted by FRET) (Figure 3a). […] We prepared a serial dilution of GST-PAH1 or PAH1-FLAG and biotinylated REST ranging from 1 to 10,000 nM (Figure 3b) and then determined the 665 nm fluorescence normalized to 620 nm. […] We also checked whether GST-PAH1-anti-GST-Eu^3+ or FLAG-PAH1-anti-FLAG-Eu^3+ complexes caused any FRET with XL665 (Supplementary Figure S1e), and could not observe any change in wells with these alone. We assigned thresholds for high-throughput and high-standard assay as signal-to-background ratio (S/B) and Z’ factors of more than 5 and 0.8, respectively. We narrowed down optimal conditions to GST-PAH1 at 10, 100, 1000 or 10,000 nM in the presence of biotinylated REST at 1000 or 10,000 nM and that PAH1-FLAG and biotinylated REST at 10,000 nM. The S/B, signal-to-noise ratio (S/N), Z’ factor and coefficient of variation (CV) are shown in the Supplementary Table S1. We also assigned stringent statistical significance and then identified similar results by the S/B and Z’ factor (Figure 3b). To exclude the possibility that Eu^3+ antibodies directly bound XL665 causing FRET, we also determined the fluorescence level in wells including anti-GST-Eu^3+ or anti-FLAG-Eu^3+ and XL665. […] The results were 772 ± 9.1 and 436 ± 9.1 665/620 nm, respectively (n = 6). Although we observed very good dynamic range data at 1 h after preparing reaction mixtures, we obtained similar high-dynamic range data even at 18 h after that (data not shown). From 10 to 1000 nM in the concentration of biotinylated REST, 1000 or 10,000 nM GST-PAH1 induced maximal signals (Figure 3b, left, light blue and orange). The dynamic range of the assay was 31-fold, whereas only 10,000 nM PAH1-FLAG was required for the same amount of biotinylated REST to provide a maximal response and the dynamic range was 7-fold (Figure 3b, right, orange). We ultimately succeeded in establishing a high-standard assay, especially using GST-PAH1 and biotinylated REST.
TR-FRET reagents were prepared by diluting the anti-GST Eu3+ cryptate or anti-FLAG Eu3+ cryptate and SA-XL665 in 50 mM Tris-HCl (pH 7.6) buffer containing 15 mM NaCl, 140 mM KCl, 0.5 mM MgCl2, 0.1% BSA and 0.8 M KF with and without biotinylated REST and each PAH1 peptide. The reaction mix was 20 µL in 384-well format according to the manufacturer’s instructions. The fluoride ion avoids interference with fluorescence properties by protecting free coordination sites between conjugate “cage” and europium ions. One hour or more after preparation, we measured the intensities at 665 and 620 nm wavelength using PHERAstar FS (BMG biotech, Offenburg, Germany).
Values are expressed as the mean ± standard error of the mean (SEM) from indicated replicate samples in each experimental group and the experiments were replicated to ensure consistency. The statistical significance was determined using the Student’s t-test. Values marked as “*” were considered to be statistically significant if their p values were <0.00005. Signal-to-background ratio (S/B), signal-to-noise ratio (S/N) and Z’-factor were calculated by the formula described in our previous report. Additionally, the general criterion sufficient to perform HTS was validated in our previous report. […]

[5] = test system: biotinylated REST; assay: SPR kinetics of PAH1 peptides on captured biotinylated REST (Biacore T200, SA chip); format: binding; details: for Ka (association rate) / Kd (dissociation rate): mean ± SEM, n = 3; for binding to biotinylated REST: SPR sensorgram, SA chip, 0.625 to 10 µM analyte
Source text: In order to validate a binding surface between Sin3B and REST, we utilized the structural information of PDB (2CZY) and designed longer peptides of binding surfaces with a tag and a protease recognition site as shown in Figure 1a. We asked the RIKEN Systems and Structural Biology Center (Yokohama, Japan) to generate recombinant peptides using E. coli. Finally, we obtained biotinylated REST, GST-PAH1 and PAH1-FLAG. In order to validate whether biotinylated REST binds two PAH1 peptides, we designed an SPR assay using a streptavidin (SA) sensor chip as shown in Figure 1b. Biotinylated REST should be bound as a ligand followed by the injection of PAH1 peptides as an analyte.
We chose the amino acid sequences of PAH1 and REST from information based on the crystal structure of a PAH1/REST complex (PDB: 2CZY). We then asked the scientists with the RIKEN institute to produce recombinant PAH1 and REST peptides. They generated recombinant peptides such as GST-PAH1, PAH1-FLAG and biotinylated REST using E. coli. We used these peptides in this study.
Values are expressed as the mean ± standard error of the mean (SEM) from indicated replicate samples in each experimental group and the experiments were replicated to ensure consistency. The statistical significance was determined using the Student’s t-test. Values marked as “*” were considered to be statistically significant if their p values were <0.00005. Signal-to-background ratio (S/B), signal-to-noise ratio (S/N) and Z’-factor were calculated by the formula described in our previous report. Additionally, the general criterion sufficient to perform HTS was validated in our previous report. In the SPR experiments, a statistical trend was considered to be statistically significant if its p-value was 1 > p > 0.05.

[6] = test system: biotinylated REST; assay: SPR competitive binding, GST-PAH1 plus PAH1-FLAG on captured biotinylated REST
Method: In order to determine whether another PAH1 peptide, PAH1-FLAG, competitively binds biotinylated REST in the presence of GST-PAH1, we injected 10 µM GST-PAH1, 10 µM PAH1-FLAG or 5 µM GST-PAH1 and 5 µM PAH1-FLAG into the flow cell capturing biotinylated REST, all of which could change the sensorgram, even though their rates of association/dissociation were different (Figure 2c). […] As a result, the equal molarity of both PAH1 peptides changed the sensorgram-like intermediate form (Figure 2c). The association rate was faster than GST-PAH1, while the dissociation rate was slower than PAH1-FLAG.

[7] = TR-FRET, PAH1 10 nM, REST 1000 nM
[8] = TR-FRET, PAH1 10 nM, REST 10,000 nM
[9] = TR-FRET, PAH1 100 nM, REST 1000 nM
[10] = TR-FRET, PAH1 100 nM, REST 10,000 nM
[11] = TR-FRET, PAH1 1000 nM, REST 1000 nM
[12] = TR-FRET, PAH1 1000 nM, REST 10,000 nM
[13] = TR-FRET, PAH1 10,000 nM, REST 1000 nM
[14] = TR-FRET, PAH1 10,000 nM, REST 10,000 nM
[15] = SPR Biacore T200, SA chip with biotinylated REST, brand-new sensor chip, analyte 0.625 to 10 µM, 30 µL/min, association 60 s, dissociation 2 min
[16] = SPR, well-used sensor chip (after around 100 regenerations) with biotinylated REST

APQLIMLANVALTGE (also: biotin, site not given here) [biotinylated REST peptide (RE-1 silencing transcription factor, binding surface for Sin3B PAH1)]
Kd [1]: 1690 nM
Kd [2]: 0.468 nM
Kd [3]: 2030 nM

B1: GST-PAH1: recombinant glutathione S-transferase (GST)-tagged PAH1 peptide of Sin3B, produced in E. coli (protein)
chain: T1 chain
modifications: left off: GST, end not stated, kept | histidine-tag-like sequence, end not stated, state not stated
notes: recombinant glutathione S-transferase (GST)-tagged PAH1 peptide of Sin3B, produced in E. coli
TR-FRET signal [4]: substantial signals; also recorded: remarkably higher dynamic range and accuracy
dynamic range [4]: 31 fold
S/B [4, 7]: 26.6
S/N [4, 7]: 469.9
S/B [4, 8]: 24.2
S/N [4, 8]: 1,114.3
S/B [4, 9]: 27.0
S/N [4, 9]: 478.7
S/B [4, 10]: 26.7
S/N [4, 10]: 1230.7
S/B [4, 11]: 29.2
S/N [4, 11]: 517.8
S/B [4, 12]: 31.1
S/N [4, 12]: 1441.0
S/B [4, 13]: 7.7
S/N [4, 13]: 123.9
S/B [4, 14]: 11.7
S/N [4, 14]: 515.1
Ka (association rate) [5, 15]: 2.38e+06 ± 6.7e+11 M⁻¹ s⁻¹
Kd (dissociation rate) [5, 15]: 1.35 ± 0.82 × 10^−3 1/s
association and dissociation with biotinylated REST ([5]; SPR sensorgram after ligand capturing, GST-PAH1 10 µM): robust association and subsequent dissociation
binding to biotinylated REST [5]: bound biotinylated REST in a concentration-dependent manner
affinity/association compared with PAH1-FLAG ([5]; SPR, statistical comparison GST-PAH1 vs PAH1-FLAG, Student's t-test): not significant but had a slower trend than PAH1-FLAG, resulting in a significantly increased affinity to REST; also recorded: significantly greater than that of PAH1-FLAG

B2: PAH1-FLAG: recombinant FLAG-tagged PAH1 peptide of Sin3B, produced in E. coli (protein)
chain: T1 chain
modifications: left off: FLAG, end not stated, kept | histidine-tag-like sequence, end not stated, state not stated
notes: recombinant FLAG-tagged PAH1 peptide of Sin3B, produced in E. coli
competitive binding to biotinylated REST ([6]; 10 µM GST-PAH1, 10 µM PAH1-FLAG or 5 µM of each): shares the same binding surface as GST-PAH1
rates of association and dissociation vs GST-PAH1 ([6]; 10 µM each): far more quickly than in GST-PAH1
TR-FRET signal [4]: fewer signals only at high reagent concentrations
dynamic range [4]: 7 fold
S/N [4, 14]: 165.3
concentration inducing maximal signal ([4]; TR-FRET, biotinylated REST 10 to 1000 nM): 10,000 nM
Ka (association rate) [5, 15]: 1.93 ± 0.17 × 10^3 Ms
Kd (dissociation rate) [5, 15]: 3.83 ± 0.39 × 10^−3 1/s
binding to biotinylated REST [5]: bound biotinylated REST in a concentration-dependent manner
Ka (association rate) [5, 16]: 2.31 ± 0.78 × 10^3 Ms
Kd (dissociation rate) [5, 16]: 3.59 ± 0.13 × 10^−3 1/s
affinity on well-used vs brand new chip ([5]; SPR, PAH1-FLAG, well-used vs brand-new chip with REST): not significantly different, but had a trend of lower affinity when compared to the brand new one
